In PMC12428095:

Tests used:
Conditions in all cases: EMSA: 20 nM probe, 10 mM Tris-HCl pH 7.5, 50 mM KCl, 10 mM MgCl2, 5% glycerol, 20 min at 4 C, 5% native PAGE in TGE pH 8.3; footprinting: same binding system …
[1] = system: T1, CopR2 (Pseudomonas putida KT2440), ORF:6041cc23; experiment: EMSA
T1 sequence: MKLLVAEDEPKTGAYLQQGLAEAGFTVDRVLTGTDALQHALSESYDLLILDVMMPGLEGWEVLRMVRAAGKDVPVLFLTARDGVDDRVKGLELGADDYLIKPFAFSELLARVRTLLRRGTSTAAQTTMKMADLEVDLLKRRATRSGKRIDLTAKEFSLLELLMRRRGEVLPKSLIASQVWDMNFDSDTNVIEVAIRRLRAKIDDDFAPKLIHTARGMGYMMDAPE

[2] = system: T2, CopR1 (Pseudomonas putida KT2440), ORF:c26c307e; experiment: EMSA
T2 sequence: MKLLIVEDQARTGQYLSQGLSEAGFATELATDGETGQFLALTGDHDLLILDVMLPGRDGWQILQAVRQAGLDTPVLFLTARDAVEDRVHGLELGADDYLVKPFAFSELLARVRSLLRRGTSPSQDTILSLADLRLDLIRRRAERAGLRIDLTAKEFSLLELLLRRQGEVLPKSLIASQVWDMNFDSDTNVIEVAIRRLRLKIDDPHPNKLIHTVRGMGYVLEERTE

[3] = system: T1, CopR2 (Pseudomonas putida KT2440), ORF:6041cc23; experiment: DNase I footprinting
[4] = system: T2, CopR1 (Pseudomonas putida KT2440), ORF:c26c307e; experiment: DNase I footprinting

Measured: binding

CTTTGACAAACGTACGGCGGGAGGGGTTGCGCAACATGGCGAGGCCTCATGCGGAATAGCCACGATGTTCGCTGCCGCCTGCTGTCAGGTAGCTGAGGTGCACATTACAGTGTTGTCAGCTTGCTGCTTCGTCGATGCGCAGGTCGCGCATCAGCAGGCCGTAGTCGAGGGCAACCTGTTCCGGGATCGGCAGATACACCACATGGCCATCGCCCGGTGCGACCTCGATGGCGTGCTGCTACTGGCCGTCGTTTTACA (double strand) [copA1 (copAB1) promoter probe]
binds: all assays above

TCGGTTCATCCTCAGCTACGAGTAGTTTCATGTGCTCAGCTTCCAAAGGTGTACACATCCAGTGTGCAGCAAAAAAAGGAGCTAACCAGAAGCTGACGTAAAAGTAATGTTGGTATCAGCCAGCTGTCAGGGCCTGCCGTCTACGGTCATTGAAGACGGGCATTGCAGTCACGCCTGCCGTTATCGGTAGCAATGGTTTCAACCCCCTGATGGAGAGAGTCCCATGAAATCGATCAGACTTTTGCTTGTGGCTACATCGATGCTGCTGACTGGCCGTCGTTTTACA (double strand) [copR2 (copRS2) promoter probe]
binds: all assays above

TGTAAAACGACGGCCAGTAGCCAGAGCCATAAACACGGGCAGCATGAGAACTGCTGATCCGAGCTTACAGAAATGTAATCACTCGGGAATCTTTTATGTGGCAGTTTCAAATCGCTTTCTCCCACTGTGACTTGCGCTTTCGAGCAAGTCCCTAAGACTTGTGGGATCCCCAAGGAAGCCGGGCCTGCGATCGAGCGGCCCGGATATCAGCGAATTATCTGACTGACTGGACACTACGGCATGCAAAGCAAAACCACGAGACGATCTTTCGTCAAAGGCCTGGC (double strand) [copA2 (copAB2) promoter probe]
binds: all assays above

TGTAAAACGACGGCCAGTGGGTGGCGGTAATGAACAGGTGTTTCATGATGACTCCGGGAATACACAGCAGGATGAGGCCACATTAGCCGGGGGCGACTGGCAGCTACCTGACAGGCACATTACAACTTTGTCAGCTTGGGCGAGCGGGCACATCGTCACGTATCATTTCAGCCATCCCATTGCCCCTGTGCTAGCGGTAAGGCGGCGCCATAGGCTACGCACAATCTTTCAGAATATGGACAGCGCATGAAACTGCTGATCGTCGAAGACCAGGC (double strand) [copR1 (copRS1) promoter probe]
binds: all assays above
